{"source": "patent US20140341881", "proteins": {"B1": {"name": "human kallikrein 14 (hK14) (protein)", "chain": "IIGGHTCTRSSQPWQAALLAGPRRRFLCGGALLSGQWVITAAHCGRPILQVALGKHNLRRWEATQQVLRVVRQVTHPNYNSRTHDNDLMLLQLQQPARIGRAVRPIEVTQACASPGTSCRVSGWGTISSPIARYPASLQCVNINISPDEVCQKAYPRTITPGMVCAGVPQGGKDSCQGDSGGPLVCRGQLQGLVSWGMERCALPGYPGVYTNLCKYRSWIEETMRDK"}, "B2": {"name": "human neutrophil elastase (HNE) (protein)", "chain": "IVGGRRARPHAWPFMVSLQLRGGHFCGATLIAPNFVMSAAHCVANVNVRAVRVVLGAHNLSRREPTRQVFAVQRIFENGYDPVNLLNDIVILQLNGSATINANVQVAQLPAQGRRLGNGVQCLAMGWGLLGRNRGIASVLQELNVTVVTSLCRRSNVCTLVRGRQAGVCFGDSGSPLVCNGLIHGIASFVRGGCASGLYPDAFAPVAQFVNWIDSIIQ"}}, "key": {"[1]": {"biological_target": "T1, CFP-STKGI-YFP-6xHis substrate (clone G3)", "T1 chain": "GALGGSTKGIGST"}, "[2]": {"biological_target": "T2, CFP-PDRHM-YFP-6xHis substrate (peptide F3)", "T2 chain": "GALGGPDRHMGST"}, "[3]": {"biological_target": "T3, CFP-YQNSS-YFP-6xHis substrate (clone C9)", "T3 chain": "GALGGYQNSSGST"}, "[4]": {"biological_target": "T4, CFP-QRLRD-YFP-6xHis substrate (peptide F11)", "T4 chain": "GALGGQRLRDGST"}, "[5]": {"biological_target": "T5, CFP-AYGYK-YFP-6xHis substrate (peptide E1)", "T5 chain": "GALGGAYGYKGST"}, "[6]": {"biological_target": "T6, CFP-YQSLN-YFP-6xHis substrate (peptide F10)", "T6 chain": "GALGGYQSLNGST"}, "[7]": {"biological_target": "T7, CFP-VGSLR-YFP-6xHis substrate (peptide G1)", "T7 chain": "GALGGVGSLRGST"}, "[8]": {"biological_target": "T8, CFP-RVTST-YFP-6xHis substrate (peptide E12)", "T8 chain": "GALGGRVTSTGST"}, "[9]": {"biological_target": "T9, CFP-EAPAK-YFP-6xHis substrate (clone G7)", "T9 chain": "GALGGEAPAKGST"}, "[10]": {"biological_target": "T10, CFP-GHRIN-YFP-6xHis substrate (clone F7)", "T10 chain": "GALGGGHRINGST"}, "[11]": {"biological_target": "T11, CFP-LSRDN-YFP-6xHis substrate (peptide E7)", "T11 chain": "GALGGLSRDNGST"}, "[12]": {"biological_target": "T12, CFP-TTDLR-YFP-6xHis substrate (clone E4)", "T12 chain": "GALGGTTDLRGST"}, "[13]": {"biological_target": "T13, CFP-NNKLR-YFP-6xHis substrate (peptide E9)", "T13 chain": "GALGGNNKLRGST"}, "[14]": {"biological_target": "T14, CFP-AYGLA-YFP-6xHis substrate (clone G5)", "T14 chain": "GALGGAYGLAGST"}, "[15]": {"biological_target": "T15, CFP-RGKTN-YFP-6xHis substrate (peptide D9)", "T15 chain": "GALGGRGKTNGST"}, "[16]": {"biological_target": "T16, CFP-MQVKH-YFP-6xHis substrate (clone E6)", "T16 chain": "GALGGMQVKHGST"}, "[17]": {"biological_target": "T17, CFP-SDKVY-YFP-6xHis substrate (clone C5)", "T17 chain": "GALGGSDKVYGST"}, "[18]": {"biological_target": "T18, CFP-LSGGR-YFP-6xHis substrate (peptide E2)", "T18 chain": "GALGGLSGGRGST"}, "[19]": {"biological_target": "T19, CFP-QPNGY-YFP-6xHis substrate (clone F1)", "T19 chain": "GALGGQPNGYGST"}, "[20]": {"biological_target": "T20, CFP-VGLYD-YFP-6xHis substrate (peptide F6)", "T20 chain": "GALGGVGLYDGST"}, "[21]": {"biological_target": "T21, CFP-TSYLN-YFP-6xHis substrate (peptide D7)", "T21 chain": "GALGGTSYLNGST"}, "[22]": {"biological_target": "T22, CFP-KLKET-YFP-6xHis substrate (clone F5)", "T22 chain": "GALGGKLKETGST"}, "[23]": {"biological_target": "T23, CFP-VVMKD-YFP-6xHis substrate (peptide E10)", "T23 chain": "GALGGVVMKDGST"}, "[24]": {"biological_target": "T24, CFP-MQATK-YFP-6xHis substrate (clone F4)", "T24 chain": "GALGGMQATKGST"}, "[25]": {"biological_target": "T25, CFP-RQTND-YFP-6xHis substrate (peptide C11)", "T25 chain": "GALGGRQTNDGST"}, "[26]": {"biological_target": "T26, CFP-RVDTG-YFP-6xHis substrate (clone D11)", "T26 chain": "GALGGRVDTGGST"}, "[27]": {"biological_target": "T27, CFP-HETLK-YFP-6xHis substrate (clone G11)", "T27 chain": "GALGGHETLKGST"}, "[28]": {"biological_target": "T28, CFP-NQRSS-YFP-6xHis substrate (peptide E5)", "T28 chain": "GALGGNQRSSGST"}, "[29]": {"biological_target": "T29, CFP-PVHLY-YFP-6xHis substrate (clone F12)", "T29 chain": "GALGGPVHLYGST"}, "[30]": {"biological_target": "T30, CFP-SAVRP-YFP-6xHis substrate (clone E11)", "T30 chain": "GALGGSAVRPGST"}, "[31]": {"biological_target": "T31, CFP-LQRAI-YFP-6xHis substrate (peptide E8)", "T31 chain": "GALGGLQRAIGST"}, "[32]": {"biological_target": "T32, CFP-TVDYA-YFP-6xHis substrate (peptide G9)", "T32 chain": "GALGGTVDYAGST"}}}
{"protein": "B1", "values": [{"measurement": "kcat/Km", "setting": "[1]", "value": 20000, "unit": "M⁻¹ s⁻¹"}, {"measurement": "Kcat/Km", "setting": "[2]", "value": 243000, "unit": "M⁻¹ s⁻¹"}, {"measurement": "kcat/Km", "setting": "[2]", "value": 243000, "unit": "M⁻¹ s⁻¹"}, {"measurement": "kcat/Km", "setting": "[3]", "value": 6000, "unit": "M⁻¹ s⁻¹"}, {"measurement": "Kcat/Km", "setting": "[4]", "value": 307000, "unit": "M⁻¹ s⁻¹"}, {"measurement": "kcat/Km", "setting": "[4]", "value": 307000, "unit": "M⁻¹ s⁻¹"}, {"measurement": "Kcat/Km", "setting": "[5]", "value": 24000, "unit": "M⁻¹ s⁻¹"}, {"measurement": "kcat/Km", "setting": "[5]", "value": 24000, "unit": "M⁻¹ s⁻¹"}, {"measurement": "Kcat/Km", "setting": "[6]", "value": 12000, "unit": "M⁻¹ s⁻¹"}, {"measurement": "kcat/Km", "setting": "[6]", "value": 12000, "unit": "M⁻¹ s⁻¹"}, {"measurement": "Kcat/Km", "setting": "[7]", "value": 481000, "unit": "M⁻¹ s⁻¹"}, {"measurement": "kcat/Km", "setting": "[7]", "value": 481000, "unit": "M⁻¹ s⁻¹"}, {"measurement": "Kcat/Km", "setting": "[8]", "value": 26000, "unit": "M⁻¹ s⁻¹"}, {"measurement": "kcat/Km", "setting": "[8]", "value": 26000, "unit": "M⁻¹ s⁻¹"}, {"measurement": "kcat/Km", "setting": "[9]", "value": 8000, "unit": "M⁻¹ s⁻¹"}, {"measurement": "kcat/Km", "setting": "[10]", "value": 12000, "unit": "M⁻¹ s⁻¹"}, {"measurement": "Kcat/Km", "setting": "[11]", "value": 127000, "unit": "M⁻¹ s⁻¹"}, {"measurement": "kcat/Km", "setting": "[11]", "value": 127000, "unit": "M⁻¹ s⁻¹"}, {"measurement": "kcat/Km", "setting": "[12]", "value": 27000, "unit": "M⁻¹ s⁻¹"}, {"measurement": "Kcat/Km", "setting": "[13]", "value": 74000, "unit": "M⁻¹ s⁻¹"}, {"measurement": "kcat/Km", "setting": "[13]", "value": 74000, "unit": "M⁻¹ s⁻¹"}, {"measurement": "kcat/Km", "setting": "[14]", "value": 6000, "unit": "M⁻¹ s⁻¹"}, {"measurement": "Kcat/Km", "setting": "[15]", "value": 80000, "unit": "M⁻¹ s⁻¹"}, {"measurement": "kcat/Km", "setting": "[15]", "value": 80000, "unit": "M⁻¹ s⁻¹"}, {"measurement": "kcat/Km", "setting": "[16]", "value": 34000, "unit": "M⁻¹ s⁻¹"}, {"measurement": "kcat/Km", "setting": "[17]", "value": 9000, "unit": "M⁻¹ s⁻¹"}, {"measurement": "Kcat/Km", "setting": "[18]", "value": 207000, "unit": "M⁻¹ s⁻¹"}, {"measurement": "kcat/Km", "setting": "[18]", "value": 207000, "unit": "M⁻¹ s⁻¹"}, {"measurement": "kcat/Km", "setting": "[19]", "value": 6000, "unit": "M⁻¹ s⁻¹"}, {"measurement": "Kcat/Km", "setting": "[20]", "value": 18000, "unit": "M⁻¹ s⁻¹"}, {"measurement": "kcat/Km", "setting": "[20]", "value": 18000, "unit": "M⁻¹ s⁻¹"}, {"measurement": "Kcat/Km", "setting": "[21]", "value": 9000, "unit": "M⁻¹ s⁻¹"}, {"measurement": "kcat/Km", "setting": "[21]", "value": 9000, "unit": "M⁻¹ s⁻¹"}, {"measurement": "kcat/Km", "setting": "[22]", "value": 19000, "unit": "M⁻¹ s⁻¹"}, {"measurement": "Kcat/Km", "setting": "[23]", "value": 15000, "unit": "M⁻¹ s⁻¹"}, {"measurement": "kcat/Km", "setting": "[23]", "value": 15000, "unit": "M⁻¹ s⁻¹"}, {"measurement": "kcat/Km", "setting": "[24]", "value": 8000, "unit": "M⁻¹ s⁻¹"}, {"measurement": "Kcat/Km", "setting": "[25]", "value": 415000, "unit": "M⁻¹ s⁻¹"}, {"measurement": "kcat/Km", "setting": "[25]", "value": 415000, "unit": "M⁻¹ s⁻¹"}, {"measurement": "hydrolysis of fluorescent substrate", "setting": "CFP-GGGGG-YFP", "value": "is not hydrolyzed by hK14 (not shown)"}, {"measurement": "kcat/Km", "setting": "[26]", "value": 15000, "unit": "M⁻¹ s⁻¹"}, {"measurement": "kcat/Km", "setting": "[27]", "value": 9000, "unit": "M⁻¹ s⁻¹"}, {"measurement": "Kcat/Km", "setting": "[28]", "value": 388000, "unit": "M⁻¹ s⁻¹"}, {"measurement": "fold selectivity of cleavage against PK", "setting": "[28]", "value": "27 and 78 fold more selective for hK14 than for hK2 and PK, respectively"}, {"measurement": "fold selectivity of cleavage against hK2", "setting": "[28]", "value": "27 and 78 fold more selective for hK14 than for hK2 and PK, respectively"}, {"measurement": "kcat/Km", "setting": "[28]", "value": 388000, "unit": "M⁻¹ s⁻¹"}, {"measurement": "kcat/Km", "setting": "[29]", "value": 7000, "unit": "M⁻¹ s⁻¹"}, {"measurement": "kcat/Km", "setting": "[30]", "value": 5000, "unit": "M⁻¹ s⁻¹"}, {"measurement": "Kcat/Km", "setting": "[31]", "value": 367000, "unit": "M⁻¹ s⁻¹"}, {"measurement": "kcat/Km", "setting": "[31]", "value": 367000, "unit": "M⁻¹ s⁻¹"}, {"measurement": "Kcat/Km", "setting": "[32]", "value": 134000, "unit": "M⁻¹ s⁻¹"}, {"measurement": "kcat/Km", "setting": "[32]", "value": 134000, "unit": "M⁻¹ s⁻¹"}]}
{"protein": "B2", "values": [{"measurement": "Kcat/Km", "setting": "[6]", "value": 49000, "unit": "M⁻¹ s⁻¹"}, {"measurement": "Kcat/Km", "setting": "[8]", "value": 200000, "unit": "M⁻¹ s⁻¹"}, {"measurement": "Kcat/Km", "setting": "[21]", "value": 90000, "unit": "M⁻¹ s⁻¹"}, {"measurement": "Kcat/Km", "setting": "[23]", "value": 65000, "unit": "M⁻¹ s⁻¹"}, {"measurement": "Kcat/Km", "setting": "[31]", "value": 209000, "unit": "M⁻¹ s⁻¹"}, {"measurement": "Kcat/Km", "setting": "[32]", "value": 181000, "unit": "M⁻¹ s⁻¹"}]}
